Results taken from IntAct's records for PubMed 30262834.

Target: lrrt2_human LRRTM2 (UniProt O43300)
Sequence (O43300 whole entry): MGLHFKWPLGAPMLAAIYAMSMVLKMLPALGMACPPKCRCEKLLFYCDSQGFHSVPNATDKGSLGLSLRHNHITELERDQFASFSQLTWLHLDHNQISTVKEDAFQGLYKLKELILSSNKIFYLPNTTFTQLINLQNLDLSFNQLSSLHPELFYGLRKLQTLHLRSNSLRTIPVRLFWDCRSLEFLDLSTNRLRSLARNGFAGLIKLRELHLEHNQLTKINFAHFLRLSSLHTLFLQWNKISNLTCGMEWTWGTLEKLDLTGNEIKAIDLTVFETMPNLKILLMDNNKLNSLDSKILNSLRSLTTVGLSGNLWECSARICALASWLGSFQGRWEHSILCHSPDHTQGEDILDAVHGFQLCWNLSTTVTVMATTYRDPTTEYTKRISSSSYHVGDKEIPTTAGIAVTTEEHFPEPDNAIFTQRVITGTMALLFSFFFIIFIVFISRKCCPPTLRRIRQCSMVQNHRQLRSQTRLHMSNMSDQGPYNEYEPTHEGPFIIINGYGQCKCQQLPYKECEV

Chain of Neurexin-1-beta (Homo sapiens), P58400-1 D141A (P58400 other isoform, or with tags, fused parts or gaps D141A): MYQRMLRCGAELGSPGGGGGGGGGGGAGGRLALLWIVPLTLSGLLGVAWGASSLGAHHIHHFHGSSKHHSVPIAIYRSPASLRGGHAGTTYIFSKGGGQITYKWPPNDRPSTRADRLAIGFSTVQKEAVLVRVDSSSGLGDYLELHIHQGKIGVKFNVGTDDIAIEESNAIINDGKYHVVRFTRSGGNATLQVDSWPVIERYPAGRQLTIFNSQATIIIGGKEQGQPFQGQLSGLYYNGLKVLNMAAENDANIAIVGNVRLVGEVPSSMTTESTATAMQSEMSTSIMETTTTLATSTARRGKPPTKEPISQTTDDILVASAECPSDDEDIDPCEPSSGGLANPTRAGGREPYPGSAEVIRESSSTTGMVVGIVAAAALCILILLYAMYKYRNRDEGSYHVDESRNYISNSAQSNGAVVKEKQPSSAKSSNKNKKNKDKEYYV

effect of a mutation on the interaction: disrupting interaction strength
Substance: Neurexin-1-beta (Homo sapiens), P58400-1 D141A
